The text below walks through data of CN114958811A.

Where two headings read alike, the source gives them in different places.

Assay [1] concerns the target RBD-Fc (义翘神州 40592-V05H) (SARS-CoV-2) (UniProt P0DTC2).
For assay [2] the target is unchanged. This is another data set of the same source.

Regarding “hACE2-Fc融合蛋白 (fusion of the human ACE2 extracellular domain with the Fc fragment of human IgG1) (Fc fusion)”, the IC50 was determined as 5.02 nM in assay [1] and 7.6 nM in assay [2].

One may read the IC50 as the concentration that inhibits the measured activity by half. Low readings indicate greater potency in that assay, high ones weaker potency in that assay.
